Experimental data: patent US10105442B2, “Treatment of diabetes type 1 using GLP-1 and anti-IL-21” (Novo Nordisk A/S, priority 2014, dated 2018)

How the values were obtained:
[1] = test system: recent-onset NOD mouse model; experiment: Determination of blood glucose effect in recent-onset NOD model (Assay V; Examples 1-3); assay type: in vivo
Method: Assay (V): Determination of Blood Glucose Effect in NOD Model
The purpose of this experiment was to determine the effect of administration of a GLP-1 agonist, such as the GLP-1 peptide, and/or an inhibitor of IL-21 function on blood glucose.
(§1) The recent-onset NOD mouse model was used. Mice were screened twice weekly and diabetes onset was defined as 2 consecutive blood glucose values of >250 mg/dL. Mice were enrolled into the experiment starting at 11 weeks of age and continued to be enrolled through 26 weeks of age. Dosing was weight based.
(§2) Blood glucose was measured by using a blood glucose meter (Bayer Contour USB) with the corresponding blood glucose strips. Mice with a blood glucose level>250 mg/dL on two consecutive days were considered diabetic. […] If the measurement was again >250 mg/dL, the animal was recorded as diabetic, enrolled into a treatment group, and was monitored further until it reached two consecutive readings of >600 mg/dL. At this time the mouse was sacrificed. Mice were also sacrificed before they reached a blood glucose value of >600 mg/dL if their overall condition was deteriorating, as determined by weight and/or overall appearance.
The mouse surrogate anti-IL-21 antibody was prepared by immunization of 6 to 8 week old BALB/c mice by s.c. injection with recombinant mouse IL-21 in a mixture of adjuvants. […] (SEQ ID No 13).
(§3) Anti-IL-21 was administered i.p. five times twice weekly starting immediately after inclusion of mice, i.e. from Day 0. […] Mouse surrogate anti-IL-21 is an mIgG1/kappa isotype with the VL amino acid sequence: […] […] […] (SEQ ID NO:26), and the VH amino acid sequence: […] […] […] (SEQ ID NO:27). […] Before use, anti-IL-21 was diluted in buffer (20 mM phosphate, 150 mM NaCl, pH=7.4). Aliquots of anti-IL-21 for injection into the animals were only thawed once.
Enrolment of mice of as described in Example 1 was continued adding 9, 8, 8 and 8 subjects to the treatment groups 1 to 4, respectively.

[2] = test system: recent-onset NOD mouse model; experiment: Liraglutide in combination with Anti-IL-21 in the NOD model, confirmation study (Example 4); assay type: in vivo
Method: as §1, §2, §3

[3] = target: murine IL-21 (Mus musculus, UniProt Q9ES17); experiment: Inhibition of IL-21 mediated STAT-3 phosphorylation in BaF3/KZ134/hIL-21R cells (Assay III); assay type: cell-based; conditions: selected antibody clone
Method: Assay (III): Inhibition of IL-21 Mediated STAT-3 Phosphorylation.
The ability of anti-IL-21 antibodies to neutralize IL-21 can be measured in a cell based assay using phosphorylation of STAT3 as read-out. BaF3 cells transfected with IL-21 receptor (IL-21R) are used and as IL-21 induces STAT3 phosphorylation reduction hereof by an anti-IL-21 antibody reflects the IL-21 neutralization activity.
Reduction in murine IL-21 activity in the presence of antibody containing supernatant was determined by measuring the level of STAT3-phosphorylation following ligand-receptor interaction in BaF3/KZ134/hIL-21R cells.
Relative neutralization activity was determined based on the percentage decrease in phosphorylated-STAT3 levels relative to control cells incubated with ligand alone. Baf3/KZ134/hIL-21R cells are plated in 96-well round-bottom tissue culture plates at a density of 50,000 cells/well. Murine IL-21 was pre-incubated with the supernatant from each tested well before transfer to the plated cells. The reactions were stopped and cells lyzed according to the manufacturer's instructions, (BIO-RAD Laboratories). Supernatants were collected, mixed with assay buffer and stored. […] The level of phosphorylated-STAT3 was determined on an array reader (BIO-PLEX, BIO-RAD Laboratories) according to the manufacturer's instructions. […]

B1: Anti-IL-21: Mouse surrogate anti-IL-21 antibody, mIgG1/kappa isotype, VL SEQ ID NO:26 and VH SEQ ID NO:27, raised against recombinant mouse IL-21 (antibody, V domains shown)
VH: MNFGPSLIFLVLILKGVQCEVQLVESGGGLVKPGGSLKLSCAASGFTFNRYSMSWVRQSPEKRLEWVAEISVGGSYTQYVDIVTGRFTISRDNAKNTLYLEMSSLRSEDTAMYYCARLYYSGSGDSYYYAMDYWGQGTSVTVSS
VL: MDFQVQIFSFLLISASVILSRGQTVLIQSPAIMSASPGEKVTMTCSASSSVSYMHWYQQKSGTSPKRWIYDTSKLASGVPARFSGSGSGTSYSLTISSMEAEDAATYYCQQWNSNPPTFGGGTKLEMK
[1]; Example 1, NOD mice, 70 days
  Effect on hyperglycemia (in words): able to reverse hyperglycemia in some of the mice
[1]; Examples 1 and 2 compiled, FIG. 5A, 35 days period
  Mice in which diabetes was reversed (BGV lowered to below 250 mg/dL): half of the mice
[1]; Examples 1 and 2 compiled, FIGS. 3 and 4
  Number of mice surviving / remaining viable throughout the study period of 70 days (in words): substantial number
[1]; Table 1, Example 1 mice (N = 10 per group at onset), day 0 post diabetes onset
  Average blood glucose +/− SD: 351 ± 56 mg/dL
[1]; Table 1, Example 1 mice, day 4 post diabetes onset
  Average blood glucose +/− SD: 370 ± 73 mg/dL
[1]; Table 1, Example 1 mice, day 7 post diabetes onset
  Average blood glucose +/− SD: 404 ± 93 mg/dL
[1]; Table 1, Example 1 mice, day 11 post diabetes onset
  Average blood glucose +/− SD: 405 ± 160 mg/dL
[1]; Table 1, Example 1 mice, day 14 post diabetes onset
  Average blood glucose +/− SD: 379 +/− 139 (n = 8) mg/dL
[1]; Table 1, Example 1 mice, day 18 post diabetes onset
  Average blood glucose +/− SD: 351 +/− 178 (n = 7) mg/dL
[1]; Table 1, Example 1 mice, day 21 post diabetes onset
  Average blood glucose +/− SD: 285 +/− 151 (n = 6) mg/dL
[1]; Table 1, Example 1 mice, day 25 post diabetes onset
  Average blood glucose +/− SD: 279 +/− 169 (n = 6) mg/dL
[1]; Table 1, Example 1 mice, day 28 post diabetes onset
  Average blood glucose +/− SD: 204 +/− 95 (n = 5) mg/dL
[1]; Table 1, Example 1 mice, day 32 post diabetes onset
  Average blood glucose +/− SD: 221 +/− 101 (n = 5) mg/dL
[1]; Table 1, Example 1 mice, day 35 post diabetes onset
  Average blood glucose +/− SD: 205 +/− 116 (n = 5) mg/dL
[1]; Table 1, Example 1 mice, day 39 post diabetes onset (liraglutide withdrawn after day 35)
  Average blood glucose +/− SD: 224 +/− 140 (n = 5) mg/dL
[1]; Table 1, Example 1 mice, day 42 post diabetes onset (liraglutide withdrawn after day 35)
  Average blood glucose +/− SD: 215 +/− 112 (n = 5) mg/dL
[1]; Table 1, Example 1 mice, day 46 post diabetes onset (liraglutide withdrawn after day 35)
  Average blood glucose +/− SD: 201 +/− 122 (n = 5) mg/dL
[1]; Table 1, Example 1 mice, day 49 post diabetes onset (liraglutide withdrawn after day 35)
  Average blood glucose +/− SD: 217 +/− 140 (n = 5) mg/dL
[1]; Table 1, Example 1 mice, day 53 post diabetes onset (liraglutide withdrawn after day 35)
  Average blood glucose +/− SD: 229 +/− 186 (n = 5) mg/dL
[1]; Table 1, Example 1 mice, day 56 post diabetes onset (liraglutide withdrawn after day 35)
  Average blood glucose +/− SD: 128 +/− 10 (n = 4) mg/dL
[1]; Table 1, Example 1 mice, day 60 post diabetes onset (liraglutide withdrawn after day 35)
  Average blood glucose +/− SD: 174 +/− 59 (n = 4) mg/dL
[1]; Table 1, Example 1 mice, day 63 post diabetes onset (liraglutide withdrawn after day 35)
  Average blood glucose +/− SD: 156 +/− 30 (n = 4) mg/dL
[1]; Table 1, Example 1 mice, day 67 post diabetes onset (liraglutide withdrawn after day 35)
  Average blood glucose +/− SD: 138 +/− 16 (n = 4) mg/dL
[1]; Table 1, Example 1 mice, day 70 post diabetes onset (liraglutide withdrawn after day 35)
  Average blood glucose +/− SD: 153 +/− 30 (n = 4) mg/dL
[1]; Table 2, additional mice (Example 2), day 0 post diabetes onset
  Average blood glucose +/− SD: 353 +/− 59 (n = 8) mg/dL
[1]; Table 2, additional mice (Example 2), day 4 post diabetes onset
  Average blood glucose +/− SD: 326 +/− 104 (n = 8) mg/dL
[1]; Table 2, additional mice (Example 2), day 7 post diabetes onset
  Average blood glucose +/− SD: 375 +/− 103 (n = 8) mg/dL
[1]; Table 2, additional mice (Example 2), day 11 post diabetes onset
  Average blood glucose +/− SD: 361 +/− 125 (n = 8) mg/dL
[1]; Table 2, additional mice (Example 2), day 14 post diabetes onset
  Average blood glucose +/− SD: 338 +/− 153 (n = 8) mg/dL
[1]; Table 2, additional mice (Example 2), day 18 post diabetes onset
  Average blood glucose +/− SD: 336 +/− 183 (n = 8) mg/dL
[1]; Table 2, additional mice (Example 2), day 21 post diabetes onset
  Average blood glucose +/− SD: 248 +/− 153 (n = 6) mg/dL
[1]; Table 2, additional mice (Example 2), day 28 post diabetes onset
  Average blood glucose +/− SD: 219 +/− 162 (n = 6) mg/dL
[1]; Table 2, additional mice (Example 2), day 35 post diabetes onset
  Average blood glucose +/− SD: 147 +/− 15 (n = 5) mg/dL
[1]; Table 2, additional mice (Example 2), day 42 post diabetes onset (liraglutide withdrawn after day 35)
  Average blood glucose +/− SD: 264 +/− 121 (n = 2^#) mg/dL
[1]; Table 2, additional mice (Example 2), day 49 post diabetes onset (liraglutide withdrawn after day 35)
  Average blood glucose +/− SD: 118 +/− 17 (n = 2) mg/dL
[1]; Table 2, additional mice (Example 2), day 56 post diabetes onset (liraglutide withdrawn after day 35)
  Average blood glucose +/− SD: 286 +/− 107 (n = 2) mg/dL
[1]; Table 2, additional mice (Example 2), day 63 post diabetes onset (liraglutide withdrawn after day 35)
  Average blood glucose +/− SD: 314 +/− 157 (n = 2) mg/dL
[1]; Table 2, additional mice (Example 2), day 70 post diabetes onset (liraglutide withdrawn after day 35)
  Average blood glucose +/− SD: 400 +/− 108 (n = 2) mg/dL
[1]; Table 3, all mice (Examples 1 and 2 compiled), day 0 post diabetes onset
  Average blood glucose +/− SD: 352 +/− 57 (n = 18) mg/dL
[1]; Table 3, all mice (Examples 1 and 2 compiled), day 4 post diabetes onset
  Average blood glucose +/− SD: 351 +/− 91 (n = 18) mg/dL
[1]; Table 3, all mice (Examples 1 and 2 compiled), day 7 post diabetes onset
  Average blood glucose +/− SD: 391 +/− 99 (n = 18) mg/dL
[1]; Table 3, all mice (Examples 1 and 2 compiled), day 11 post diabetes onset
  Average blood glucose +/− SD: 385 +/− 147 (n = 18) mg/dL
[1]; Table 3, all mice (Examples 1 and 2 compiled), day 14 post diabetes onset
  Average blood glucose +/− SD: 358 +/− 148 (n = 16) mg/dL
[1]; Table 3, all mice (Examples 1 and 2 compiled), day 18 post diabetes onset
  Average blood glucose +/− SD: 343 +/− 181 (n = 15) mg/dL
[1]; Table 3, all mice (Examples 1 and 2 compiled), day 21 post diabetes onset
  Average blood glucose +/− SD: 267 +/− 153 (n = 12) mg/dL
[1]; Table 3, all mice (Examples 1 and 2 compiled), day 28 post diabetes onset
  Average blood glucose +/− SD: 212 +/− 136 (n = 11) mg/dL
[1]; Table 3, all mice (Examples 1 and 2 compiled), day 35 post diabetes onset
  Average blood glucose +/− SD: 176 +/− 88 (n = 10) mg/dL
[1]; Table 3, all mice (Examples 1 and 2 compiled), day 42 post diabetes onset (liraglutide withdrawn after day 35)
  Average blood glucose +/− SD: 229 +/− 117 (n = 7^#) mg/dL
[1]; Table 3, all mice (Examples 1 and 2 compiled), day 49 post diabetes onset (liraglutide withdrawn after day 35)
  Average blood glucose +/− SD: 189 +/− 127 (n = 7) mg/dL
[1]; Table 3, all mice (Examples 1 and 2 compiled), day 56 post diabetes onset (liraglutide withdrawn after day 35)
  Average blood glucose +/− SD: 181 +/− 97 (n = 6) mg/dL
[1]; Table 3, all mice (Examples 1 and 2 compiled), day 63 post diabetes onset (liraglutide withdrawn after day 35)
  Average blood glucose +/− SD: 209 +/− 119 (n = 6) mg/dL
[1]; Table 3, all mice (Examples 1 and 2 compiled), day 70 post diabetes onset (liraglutide withdrawn after day 35)
  Average blood glucose +/− SD: 236 +/− 134 (n = 6) mg/dL
[2]; Example 4
  Survival through 70 days post onset of hyperglycaemia: 75%
[2]; Example 4, first 35 days post disease onset
  Mice with established hyperglycaemia cured / reversed: 75%
[3]
  Neutralizing activity in STAT3 phosphorylation assay (in words): strong neutralizing activity
